Measurements as given in the DeepSol protein solubility set.

Assay: soluble on expression in E. coli; label from the status in PepcDB or PDB records

| Sequence | soluble on expression in E. coli |
| --- | --- |
| MAFALWYSLQERAPVVERSLKVPLQVVGLGEGRRALGLPREVLLRLRGPAPLLEGRALPVSAYLDLSGAEGEVVREVRVAAPQGVEVLEVVPARVGVVVEVEAQRQIPVEVLAQGAWVLTDPAFVEAVGPESQVEAAVSAVGLDLGDEVVLFPFGPEGPLEGVELRPNRVRVVERREALFLKEVPLSLKPPPGRRLLDYAPKTVRLVGPREALEGLAGVAATLQEALGPGEVEVAVAPDLPPGVQTLGPVRVRVALE | soluble |
| MPKLILLGDSTLDNFNWVPNKATVTDHLRRQLPKMEILNFAVDGFTTDSILYGEYKDCAVTSSQHTHKYFEPLKALENEQDVEHIVLSVLGNDFRIQLSKLIFMAPEERPKAIEQLINHIIKNYIQVVKEIRKVQPNAKLSIVLQYTPYVENDPYLIYFLMDKLFHHGTVSHGFLSYLQIMYYSIFGLNSKHEQQALNLLHKLMAKVYRNVFNELGDNSLAIIDLASSFDYRNSKLYKAQIEPSDEGGKLIASLITHTITHHDFQNESMLYAKPPLQPNPKILAVPLTKLKKDWFPQQIYVTQEQAITAFKQAYLLQLNKDRQSYLGLYSFFARSNVDFEHATLEKLIVHAQNYSTKKTGYRTLKVMQNLGWLTEQGNIKEESGIVRLLKN | not soluble |
| MFLTWENLFLTNQSRRRLKLLVVERSYNNVGNFLKEYFGGFFEIVNFDDLRLTMVDMVSLSSEYDVIVTDMILEQTTDSEILFFNQMAPSVVANRLTDM | not soluble |
| MRIHSAGHSLPAPGPSVETTEKAVQSSSAQNPASCSSQTERPEAGSTQVRPNYPYSSVKTRLPPVSSTGQAISDTPSSLPGYLLLRRLDRRPLDEDSIKALVPADEALREARRALPFGRGNIDVDAQRTHLQSGARAVAAKRLRKDAERAGHEPMPENDEMNWHVLVAMSGQVFGAGNCGEHARIASFAYGALAQESGRSPREKIHLAEQPGKDHVWAETDNSSAGSSPIVMDPWSNGAAILAEDSRFAKDRSAVERTYSFTLAMAAEAGKVARETAENVLTHTTSRLQKRLADQLPNVSPLEGGRYQPEKSVLDEAFARRVSDKLNSDDPRRALQMEIEAVGVAMSLGAEGVKTVARQAPKVVRQARSVASSKGMPPRR | not soluble |
| MITLAVDAMGGDQGLAVTVPGATAFLQAHPDVRLIMTGDETQLRQALTAAGAPMERIDICHTTQVVGMDEAPQSALKNKKDSSMRVAINQVKEGKAQAAVSAGNTGALMATARFVLKTIPGIERPAIAKFLPSDTDHVTLALDLGANVDCTSEQLAQFAVIGSELVHALHPQKGQPRVGLVNVGTEDIKGTDTVKQTYKLLQNSKLNFIGNIESNGILYGEADVVVADGFVGNVMLKTIEGAVKFMSGAIRREFQSNLFNKLAAVAALPALKGLKNKLDPRKFNGAILLGLRGIVIKSHGGTDETGFRYALEEAYHEAKSAGLSKIEQGVAEQLAALETAKAVQNENVGGL | not soluble |
| MMNYDRILIRYGEMTTKGKNRNIFVRRLKNNIARKLQAFERIQIEYMRDRMYILLNGEPHEPIIEKLKTVFGIHSFSLAMKCENDLDAIKETALAAVRQLPYKGKTFKVSARRVDKQFPDRSDELNYEVGAHILRHTDGLTVNVREPDIDVRIEVRQDGTYVTCRDIFGAGGLPVGTSGKAMLMLSGGIDSPVAGYLSMKRGLEIEAVHFFSPPFTSERAKQKVIDLVRKLTTYGGRIKLHIVPFTEVQQAIYQGVPNEYSLISTRRAMLRITDALRRRQRALAIVTGESLGQVASQTLESMYVINEVTNTPILRPLVSMDKLEIIELAKQIGTHDISILPYEDCCTIFTPRAPKTKPKKEKVFHYESQLDLAPLLEKAVNDTETLVIDEETGQGDEFAELF | not soluble |
| MSEQFEMIAKTFQGLEEILAEELTTLGANDIQIGRRMVSFTGDKRMMYKANFCLRTAIRILKPIKNFTAKDADEVYNQIQAIPWEEYLDVNKTFAIDAVVFSEEFRHSKFVSYKVKDAIVDYFRKKTGKRPSVRINNPDVLLNIHIAQTTCTLSLDSSGESLHRRGYRQEQVDAPLNEVLAAGMLLMTGWRGECDLIDPMCGSGTIPIEAALIARNIAPGVFRKGFAFEKWVDFDSEMFDEIYNDDSQEREFTHKIYGYDNNPKANEIATHNIKAAGVSKDVTLKLQPFQQFEQPQEKSIIVMNPPYGERISTNDLLGLYQMIGERLKHAFVGNEAWVLSYREECFDQIGLKPSKKVPLFNGALECEFRKYEIFDGKYKEFKSQEGEGEEKKETEGNYDTSRPRERKEFKPRGEGEFKPRREGEFKPRREGEFKPRKEGDFKPRREEGSFTRDDRDRKPRGEFRGERDSRAPREFRGNREPRIPKKEEE | not soluble |
| SLMHHALHIKNGIVIDPKNGVKAEKMDIFVKNGKIVEESEVKGEDVKVIDANNKLVVAGGVDMHAHIAGSKINTGRTMRPEEMRVVRNIAGKFRAAVGRVLLTSPAIGYEYAKMGYTISIEAAQPPIGSPHTHEELDAIPMIDKAALPVFGNWHFVLKYVAEKDMEKLKAFIAWAIERTKGFGVKVVNPGGVGAWMYGGNVTSLDDQVPGFNVTPREIITSLVKATEELQLNHSVHLHCNRLGVPGNYETTVESIKLVDGIRNDARQVLHVTHVQFNAYAGDSWRTVASGAEAIAKTVNSMDNVTIDMGQPIFGHATAMTGDAPFQFTLHKLTGSRWSNKDSEIEGGAGIVPIAYLPKNPVHALQWAIGLELGLLIDSDKVVLTTDYPNGGPFTEYPYIMAMLMSKKMREGELERVSPFVQKASNLPAIDTEKTLEEVIHMTRSLPARVLGLPQKGHLGVGADADIAIYDLNPLDVDTSNDFEKVYKAFKTAVYTIKDGQILVKDGELVDEYWGRTYWVDATGKADMEAIKDDLNEMFSKYYTVELQNYGVEERWLRKPERIVI | not soluble |
| PTANIMFDRRVVRGNTYAARILPADATQTQTKGPSPASTKKRTTRTLPPRTPEAVDGRRHIDIQTDVYLEELTDTVPEADTSTQTDAFLDRPPTPLFVPQKTGTDAITQIENGDLFDFDFEVEPILEVLVGKVLEQGLMEVLEEEELAAMRAHQEHFEQIRNAELVATQRMEAAERRKLEEKERRMQQERERVERERVVRQKVAASAFARGYLSGIVNTVFDRLVSSGYIYDPVMREVETAFMPWLKEQAIGYLARGVVARRVVDKLVEDAAAALAANRSTLADKAASTAATVDAWAERQAKMEAELQGKELEAVRRRPTFVLRELKPAVASADAVEAAAAELTAQAEEAANAKWEA | not soluble |
| MLDTNMKTQLRAYLEKLTKPVELIATLDDSAKSAEIKELLAEIAELSDKVTFKEDNTLPVRKPSFLITNPGSQQGPRFAGSPLGHEFTSLVLALLWTGGHPSKEAQSLLEQIRDIDGDFEFETYYSLSCHNCPDVVQALNLMAVLNPRIKHTAIDGGTFQNEITERNVMGVPAVFVNGKEFGQGRMTLTEIVAKVDTGAEKRAAEALNKRDAYDVLIVGSGPAGAAAAVYSARKGIRTGLMGERFGGQVLDTVDIENYISVPKTEGQKLAGALKAHVSDYDVDVIDSQSASKLVPAATEGGLHQIETASGAVLKARSIIIATGAKWRNMNVPGEDQYRTKGVTYCPHCDGPLFKGKRVAVIGGGNSGVEAAIDLAGIVEHVTLLEFAPEMKADQVLQDKVRSLKNVDIILNAQTTEVKGDGSKVVGLEYRDRVSGDIHSVALAGIFVQIGLLPNTHWLEGALERNRMGEIIIDAKCETSVKGVFAAGDCTTVPYKQIIIATGEGAKASLSAFDYLIRTKIA | soluble |
| GAMGSEESLKHATRIIDEVVSKFLDDLGNAKSHLMSLYSACSSEVPPGPVDQKFQSIVIGCALEDQKKIKRRLETLLRNIDNSDKAIK | soluble |
| MGHHHHHHSHMTLKSSGRISDVFLCRHEKIFHPNKGYIYVVKVMRENTHEATYIQRTFEEFQELHNKLRLLFPSSHLPSFPSRFVIGRSRGEAVAERRREELNGYIWHLIHAPPEVAECDLVYTFFHPLPRDEKAMGTSPAPKSSDGTWARPVGKVGGEVKLSISYKNNKLFIMVMHIRGLQLLQDGNDPDPYVKIYLLPDPQKTTKRKTKVARKTCNPTYNEMLVYDGIPKGDLQQRELQLSVLSEQGFWENVLLGEVNIRLRELDLAQEKTGWFALGSRSHGTL | not soluble |
| MAGGFGVGKTTFVGAVSEIAPLSTEELLTTVGAATDNLDGIENKVETTVAMDFGRITLDPEHVLYLFGTPGQQRFWFMWDELSEGALGAVILADTRRLEDCFAAVDFFEQRGLAFIVAINDFDGGYRYDPAEVRAAIDLDPHIPVVRCDARISSSGVQTLLTLVRHLLAHAPATAPSHGAHTLEHHHHHH | not soluble |
| MAHHHHHHMKKKGCHSDRKHCQKHVQAELCLFILHSVLRKCPNKMVHSILQNSHGNIRKKFEISLKHETSTPAPQKRRREVLLKRKTNSKRGNRA | not soluble |
